Laboratory results published in paper PMC3229523, “Identification of Lactoferricin B Intracellular Targets Using an Escherichia coli Proteome Chip” (PLoS ONE, 2011).
Ends that are not written are not given here. * marks the point of attachment. Biotin = O=C1N[C@H]2[C@H](CS[C@H]2CCCCC(=O)*)N1

What was measured:
Experiment in all cases: peptide or protein array; E. coli proteome chip: purified His-tagged proteins printed in duplicate on Fullmoon slides, blocked with 1% BSA; 10 nM N-terminal biotinylated LfcinB with 1% BSA, room temperature, 1 h; detected with DyLight 649-labeled streptavidin, ratio to DyLight 549-labeled anti-His antibody; ProCAT normalisation, local cut-off; triplicate chips
Settings in all cases: both partners purified
NrdB = biological target: T1, NrdB (E. coli K-12, UniProt P69924 1-376)
T1 construct: NrdB, E. coli K-12
T1 sequence (looked up): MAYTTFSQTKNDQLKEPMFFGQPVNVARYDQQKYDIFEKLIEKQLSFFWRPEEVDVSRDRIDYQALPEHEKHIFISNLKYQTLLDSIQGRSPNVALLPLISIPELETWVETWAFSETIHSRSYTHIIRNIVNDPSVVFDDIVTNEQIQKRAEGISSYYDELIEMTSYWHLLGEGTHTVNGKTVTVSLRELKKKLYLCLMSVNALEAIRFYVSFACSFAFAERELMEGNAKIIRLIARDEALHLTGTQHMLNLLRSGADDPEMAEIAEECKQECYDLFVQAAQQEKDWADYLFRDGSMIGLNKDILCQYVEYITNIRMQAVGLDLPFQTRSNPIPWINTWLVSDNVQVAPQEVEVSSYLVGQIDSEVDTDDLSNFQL

RffH = biological target: T2, RffH (E. coli K-12, UniProt P61887 1-293)
T2 construct: RffH, E. coli K-12

Rob = biological target: T3, Rob (E. coli K-12, UniProt P0ACI0 1-289)
T3 construct: Rob, E. coli K-12
T3 sequence (looked up): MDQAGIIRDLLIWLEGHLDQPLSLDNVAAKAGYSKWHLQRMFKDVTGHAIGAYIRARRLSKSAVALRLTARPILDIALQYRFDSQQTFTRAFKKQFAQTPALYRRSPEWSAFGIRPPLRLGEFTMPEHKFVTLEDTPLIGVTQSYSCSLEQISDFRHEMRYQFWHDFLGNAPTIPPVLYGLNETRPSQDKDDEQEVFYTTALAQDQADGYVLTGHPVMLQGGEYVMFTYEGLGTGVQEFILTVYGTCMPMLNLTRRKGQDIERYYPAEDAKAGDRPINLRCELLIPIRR

YfiQ = biological target: T4, YfiQ (E. coli K-12, UniProt P76594 1-886)
T4 construct: YfiQ, E. coli K-12
T4 sequence (looked up): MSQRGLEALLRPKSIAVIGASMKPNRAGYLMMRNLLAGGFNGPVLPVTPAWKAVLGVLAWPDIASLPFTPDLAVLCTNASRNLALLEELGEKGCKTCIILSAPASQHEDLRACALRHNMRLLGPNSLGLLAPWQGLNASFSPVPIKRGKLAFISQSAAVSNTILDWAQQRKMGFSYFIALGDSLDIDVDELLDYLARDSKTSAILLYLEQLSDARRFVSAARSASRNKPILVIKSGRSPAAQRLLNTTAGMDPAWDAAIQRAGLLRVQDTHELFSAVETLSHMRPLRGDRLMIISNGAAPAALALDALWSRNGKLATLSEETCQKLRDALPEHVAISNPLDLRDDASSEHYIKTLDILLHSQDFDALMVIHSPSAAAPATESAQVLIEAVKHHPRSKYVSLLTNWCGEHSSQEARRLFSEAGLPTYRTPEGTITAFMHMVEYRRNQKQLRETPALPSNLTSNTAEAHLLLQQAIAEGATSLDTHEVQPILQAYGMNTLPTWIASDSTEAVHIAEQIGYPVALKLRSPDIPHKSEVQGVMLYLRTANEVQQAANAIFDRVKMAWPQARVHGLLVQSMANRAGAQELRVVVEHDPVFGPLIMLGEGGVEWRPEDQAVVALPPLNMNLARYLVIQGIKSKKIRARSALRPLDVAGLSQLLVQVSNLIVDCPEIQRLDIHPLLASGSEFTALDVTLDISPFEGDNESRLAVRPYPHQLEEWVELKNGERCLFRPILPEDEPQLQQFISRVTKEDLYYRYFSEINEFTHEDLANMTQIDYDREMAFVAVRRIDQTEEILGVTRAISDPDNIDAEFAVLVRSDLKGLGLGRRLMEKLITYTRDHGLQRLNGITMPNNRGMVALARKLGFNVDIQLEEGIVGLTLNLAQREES

Measured: binding result

T2 sequence (P61887 whole entry): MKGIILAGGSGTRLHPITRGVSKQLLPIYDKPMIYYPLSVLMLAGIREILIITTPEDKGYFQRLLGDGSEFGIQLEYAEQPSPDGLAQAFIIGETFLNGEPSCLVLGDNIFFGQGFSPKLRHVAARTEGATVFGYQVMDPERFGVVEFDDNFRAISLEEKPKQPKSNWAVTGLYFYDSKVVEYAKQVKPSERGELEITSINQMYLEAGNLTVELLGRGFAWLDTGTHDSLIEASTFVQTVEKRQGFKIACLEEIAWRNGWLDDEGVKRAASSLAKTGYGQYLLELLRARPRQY

B1: N-terminal biotinylated Lactoferricin B (peptide, UniProt P24627 36-60, looked up)
peptide: Biotin-FKCRRWQWRMKKLGAPSITCVRRAF
modifications: ends and bridges not checked
notes: lactoferricin B (LfcinB), cationic antimicrobial peptide of 25 amino acids; also called biotinylated LfcinB; biotin-labeled LfcinB; source: bought: Kelowna Inc
binds: NrdB | RffH | Rob | YfiQ
